Data: patent publication US8030017B2, “Thermostable luciferases and methods of production” (Promega Corporation, priority 1997, dated 2011)

Experiments:
[1] = Robotic quantitative screen of E. coli lysates: luminescence activity (Li), expression/specific activity; format: biochemical; details: relative value; Control is Luc71-5D4 at 60° C. (=1)
Experimental: A plate containing cells is retrieved from the carousel and placed on the shaker for 3-5 minutes to fully mix the cells. The cells tend to settle from solution upon standing.
To measure Optical Density (O.D.), the plate is moved from the shaker to the locator near the luminometer; the lid is removed and the plate placed into the luminometer. The O.D. is measured using a 620 nm filter.
To prepare a cell lysate, the plate of cells is first retrieved from the refrigerator and mixed on the shaker to resuspend the cells. A new plate from the carousel without a lid is placed in the reagent dispenser and 20 μl of Buffer A is added to each well. This is placed in the pipetting station.
The plate is then moved to the reagent dispenser to add 175 μl of Buffer B, and then mixed on the shaker for about 15 minutes or more. The combination of the freeze/thaw and Buffer B will cause the cells to lyse.
(§1) One daughter plate is placed in the luminometer and the 1X assay method is used. After the assay, the plate is placed in the ambient incubator, and the second daughter plate is placed in the luminometer. For the second plate, the 0.02X assay method is used. This plate is discarded, and the first plate is returned from the incubator to the luminometer. The repeat assay method is used (i.e., no reagent is injected). Afterwards, the plate is again returned to the ambient incubator.
1X Assay reagent: 5 μM Luciferin; 175 μM ATP; 20 mM Tricine, pH 8.0; 0.1 mM EDTA
(§2) The following criteria were used for screening purposes. The temperature chosen for the enzyme stability parameter was such that the parent enzyme would decay 100 to 1000 fold over 10 hours (see Table 1). Criteria 1 is achieved manually; data for criteria 2-6 is generated by robotic analysis. For all criteria, the maximum value as described is selected. • 1. In vivo screen. The brightest clones are selected at a given temperature. • 2. Expression/specific activity. The value for normalized luminescence is calculated as the ratio of luminescence to optical density. The value is reported as the ratio with the reference value. • 3. Enzyme stability. Measurements of normalized luminescence of the incubated samples (3 taken over about 15 hours) are fitted to In(L)=In(L0)−(t/τ), where L is normalized luminescence and t is time. τ is a measure of the enzyme stability. The value is reported as the ratio with the reference value, and the correlation coefficients are calculated. • 4. Substrate binding. Measurements of normalized luminescence with 1X and 0.02X are taken at the initial reading set, and 1X and 0.06X are taken at the 5 hour set. The ratio of the 0.02X:1X and 0.06X:1X gives the relative luminescence at 0.02X and 0.06X concentrations. These values, along with the relative luminescence at 1X (i.e., 1), are fitted to a Lineweaver-Burk plot to yield the Km:app,total for the substrates ATP, luciferin, and CoA. The values are reported as the inverse ratio with the reference value, and the correlation coefficients are calculated. • 5. Signal stability. The luminescence of the initial IX luminescent reactions are re-measured 3 additional times over about 15 hours. These values are fitted to In(L)=In(L0)−(t/τ) and the integral over t (15 hours) is calculated. Signal stability is then calculated as S=(1−int(L)/L0t)^2. The values are reported as the inverse ratio with the reference value, and the correlation coefficients are calculated. • 6. Composite fitness. The values of criteria 2 through 5 are combined into a single composite value of fitness (or commercial utility). This value is based on a judgment of the relative importance of the other criteria. This judgment is given below:
Normalize luminescence data: For each measurement of luminescence in the eight daughter plates, the normalized luminescence is calculated by dividing the relative light units by the optical density of the original plate. […]

[2] = Robotic quantitative screen of E. coli lysates: enzyme stability (tau) at elevated temperature; format: physicochemical; details: relative value; Control is Luc71-5D4 at 60° C. (=1)
Experimental: Two white assay plates (Labsystems #9502887) are obtained from the plate feeder and placed in the pipetter. The incubation plate from the shaker is placed in the pipetter, and the lid removed and placed on the nearby locator. Two daughter plates are made using the pipetting procedure (see “Create Pair of Daughter Plates from Incubation Plate”). Afterwards, the lid is replaced on the parent plate, and the plate is placed in a high temperature incubator. [ranging from 31° C. to about 65° C. depending on the clone.]
To begin the second set of measurements, the plate from the high temperature incubator is placed in the shaker to mix.
In the final set of measurements, the plate from the high temperature incubator is again placed in the shaker to mix.
as §2
Calculate enzyme stability (τ): For each sample, use linear regression to fit In(L1x)=In(L0)−(t/τ) using the three luminescence measurements with 1X substrate concentrations (Plates 1, 5, 8). Also calculate the regression coefficient.
Calculate the reference-normalized values: For the criteria parameter of each sample, a reference-normalized value is determined by calculating the ratio or inverse ratio with the respective reference value. The reference-normalized values are Li/Lir, τ/τr, Kmr/Km:app,total, and Sr/S, where reference values are calculated from the equations of the appropriate reference surface.
(§3) “Enzyme stability” was determined by the rate of activity loss from cell lysates over 10 hours. In successive rounds of evolution the incubation temperature of the lysates was increased.
Robotic Automation: Robotic automation was used in the quantitative screens to accurately perform the large number of required quantitative assays on the cultured cells. […]

[3] = Robotic quantitative screen of E. coli lysates: signal stability (S), sustained enzymatic turnover; format: biochemical; details: inverse ratio with reference; Control is Luc71-5D4 at 60° C. (=1)
Experimental: as §1
The plate in the ambient incubator is returned to the luminometer and the repeat assay method is again used. The plate is returned afterwards to the ambient incubator.
The plate in the ambient incubator is returned to the luminometer and the repeat assay method is again used. The plate is discarded afterwards.
as §2
Calculate signal stability (S): For each sample, use linear regression to fit In(L)=In(L0)[…] using the four luminescence measurements of the initial microplate with 1X substrate concentrations (Plates 1, 3, 4, and 7). Also calculate the regression coefficient. From the calculated values of T and L0, calculate the integral of luminescence by int(L)=τL0(1−exp(−tf/τ)), where tf is the average time of the last measurement (e.g., 15 hours). The signal stability is calculated as S=(1−int(L)/Litf)^2, where Li is the initial measurement of normalized luminescence with 1× substrate concentration (Plate 1).
[Note: To correct for evaporation, an equation S=(1+K−int(L)/Litf)^2, may be used where 1/K=2(relative change of liquid volume at tf).]
Calculate the reference-normalized values: For the criteria parameter of each sample, a reference-normalized value is determined by calculating the ratio or inverse ratio with the respective reference value. […]

[4] = Thermostability (half-life, retained activity) of luciferases incubated in aqueous solution at different temperatures; format: physicochemical; details: for Thermostability Of Luciferase Activity (Half-Life In Hours): purified enzyme
Description: As defined herein, a “thermostable” enzyme, e.g., a luciferase, or an enzyme which has “thermostability”, is an enzyme which under certain conditions, e.g., at certain temperature, in aqueous solution and/or for certain periods of time, has an increased retention of activity relative to a reference enzyme. For example, for a thermostable luciferase, a reference luciferase may be native wild-type luciferase or recombinant wild-type luciferase. Preferably, for beetle luciferases, the activity is luminescence under conditions of saturation with luciferin and ATP. One measure of thermostability of an enzyme is the half-life of the enzyme in an aqueous solution (the time over which 50% of the activity is lost) at a stated temperature.
(§4) Protein purification: Four mutants that are described herein (Luc[T249M], Luc49-7C6, Luc78-0B10, and Luc90-1B5) were purified using a previously published procedure (Hastings et al., 1996).
[…] Enzyme stability was determined from diluted proteins incubated at different temperatures, and aliquots were removed at different time points. A linear regression of the natural log of the luminescence and time was calculated. Half-life was calculated as the 1n(0.5)/slope of the regression.

[5] = Michaelis-Menten constant for luciferin of purified mutants; format: biochemical; details: purified enzyme
Description: (§5) Substrate binding was screened by measuring an apparent composite Km (see Example 2) for luciferin and ATP. […] The Km for luciferin rose while the Km for ATP declined (Table 3). The reason for this change is unknown, although it can be speculated that more efficient release of oxyluciferin or luciferin inhibitors could lead to more rapid enzyme turnover.
as §4

[6] = Michaelis-Menten constant for ATP of purified mutants; format: biochemical; details: purified enzyme
Description: as §5, §4

[7] = Robotic thermostability screen of LucPpl mutants: decrease of activity over 10 hours at screening temperature; format: physicochemical
Experimental: as §3
To prepare luciferases having certain performance, a method for in vitro evolution of enzyme function, as described above, was employed. Briefly described, the method is a recursive process of generating random mutations and screening for desirable properties. It was originally developed primarily to increase the thermostability of luciferases, although other enzymological characteristics are also subject to optimization by the screening criteria. A slightly different strategy was used to achieve the properties described above since two related luciferases needed to be optimized concomitantly.
The luciferases from P. plagiophthalamus have 13 cysteines, which are potentially sensitive to oxidation. This is in contrast to the commonly used firefly luciferase, which has only 4 cysteines. To remove any cysteines that may limit enzyme stability, oligonucleotide-directed mutagenesis was used to randomize the cysteine codons. Three sets of oligonucleotides were used: non-conserved cysteines in regions of low sequence homology (positions 69, 114, 160, 194, 335, and 460), non-conserved cysteines in regions of higher sequence homology (positions 127, 213, 310, and 311), and highly conserved cysteines (positions 60, 80, and 388). […]
The random mutagenesis process was repeated using the best clone from the previous cycle of mutagenesis (Luc53-0G01). […] The discrepancy in measured activity of Luc53-0G01 in this cycle of mutagenesis compared to the previous cycle may be due to changes in the assay procedure and recalibration of the incubator temperature. It should be noted that the recorded thermostabilities from each stage of mutagenesis are calculated from robotic data using abbreviated assay procedures. The data are intended to indicate the relative stabilities of enzyme mutants when assayed in the same screen, rather than providing an accurate quantitation of thermostability.

Molecule | Luminescence (Li) [1] | Enzyme stability (tau) [2] | Signal stability (S) [3] | thermostability compared with parent enzyme ([4]; 4° C., times of less than 15 days (FIG. 49)) | half-life ([4]; 22° C. (FIGS. 9, 10)) | Thermostability Of Luciferase Activity (Half-Life In Hours) ([4]; 37° C.) | Thermostability Of Luciferase Activity (Half-Life In Hours) ([4]; 50° C.) | half-life calculated from regression of log luminescence ([4]; 60° C. (FIGS. 6, 8)) | Thermostability Of Luciferase Activity (Half-Life In Hours) ([4]; 60° C.) | half life calculated from regression of log luminescence ([4]; FIG. 5, temperature not given) | Thermostability Of Luciferase Activity (Half-Life In Hours) ([4]; Room Temperature (about 25° C.)) | Km [5] | Km [6] | decrease of activity over 10 hours ([7]; 41° C.) | decrease of activity ([7]; 42° C.)
Luc78-0B10: mutant luciferase, SEQ ID NO:19 (protein, Mutant luciferase) MADKNILYGPEPFYPLADGTAGEQMFDALSRYADISGCIALTNAHTKENVLYEEFLKLSCRLAESFKKYGLKQNDTIAVCSENGLQFFLPVIASLYLGIIAAPVSDKYIERELIHSLGIVKPRIIFCSKNTFQKVLNVKSKLKSVETIIILDLNEDLGGYQCLNNFISQNSDSNLDVKKFKPYSFNRDDQVALVMFSSGTTGVPKGVMLTHKNIVARFSLAKDPTFGNAINPTTAILTVIPFHHGFGMMTTLGYFTCGFRVVLMHTFEEKLFLQSLQDYKVESTLLVPTLMAFLAKSALVEKYDLSHLKEIASGGAPLSKEIGEMVKKRFKLNFVRQGYGLTETTSAVLITPKGDARPGSTGKIVPFHAVKVVDPTTGKILGPNEPGELYFKGAMIMKGYYNNEEATKAIIDNDGWLRSGDIAYYDNDGHFYIVDRLKSLIKYKGYQVAPAEIEGILLQHPYIVDAGVTGIPDEAAGELPAAGVVVQTGKYLNEQIVQDFVSSQVSTAKWLRGGVKFLDEIPKGSTGKIDRKVLRQMFEKHTNG | 1.93 | 2 | 0.9926 | not distinguishable from the parent enzyme | 109 days | 220 h | 47 h | 38 hours | 15 h | 144 hours | 3000 h | 1.6 µM | 3.4 µM |  | 
Luc30-4B02: LucPplYG mutant, first cycle of random mutagenesis (protein, Mutant luciferase, LucPplYG mutant, first cycle of random mutagenesis) MMKREKNVIYGPEPLHPLEDLTAGEMLFRALRKHSHLPQALVDVVGDESLSYKEFFEATVLLAQSLHNCGYKMNDVVSICAENNTRFFIPVIAAWYIGMIVAPVNESYIPDELCKVMGISKPQIVFTTKNILNKVLEVQSRTNFIKRIIVLDTVENIHGCESLPNFISRYSDGNIANFKPLHFDPVEQVAAILCSSGTTGLPKGVMQTHQNICVRLIHALDPRAGTQLIPGVTVLVYLPFFHAFGFSITLGYFMVGLRVIMSRRFDPEAFLKAIQDYEVRSVINVPSVILFLSKSPLVDKYDLSSLRELCCGAAPLAKEVAEVAAKRLNLPGIRCGFGLTESTSANIHSLRDEFKPGSLGRVTPLMAAKIADRETGKALGPNQVGELCIKGPMVSKGYVNNVEATKEAIDDDGWLHSGDFGYYDEDEHFYVVDRYKELIKYKGSQVAPAELEEILLKNPCIRDVAVVGIPDLEAGELPSAFVVKQPGKEITAKEVYDYLAERVSHTKYLRGGVRFVDSIPRNVTGKITRKELLKQLLEKAGG |  |  |  |  |  |  |  |  |  |  |  |  |  | 63 fold | greater than 2000 fold
